Experimental findings from patent US20200299400A1 (published 2020) are described below.

One test has as its target T1, hCD40-Fc (human, UniProt P25942 21-193).
T1 construct: Immobilized on the sensor chip; construct not described; not shown: Fc part of hCD40-Fc not described
The test can be described thus: SPR; dAb-Fc analyte on immobilized hCD40-Fc; avidity-influenced KDapparent. A general note: SPR reads the build-up and loss of mass on a sensor chip optically.

For test [1], the target named is T2, human CD73 on human cell lines (human, UniProt P21589 27-549).
T2 sequence (looked up): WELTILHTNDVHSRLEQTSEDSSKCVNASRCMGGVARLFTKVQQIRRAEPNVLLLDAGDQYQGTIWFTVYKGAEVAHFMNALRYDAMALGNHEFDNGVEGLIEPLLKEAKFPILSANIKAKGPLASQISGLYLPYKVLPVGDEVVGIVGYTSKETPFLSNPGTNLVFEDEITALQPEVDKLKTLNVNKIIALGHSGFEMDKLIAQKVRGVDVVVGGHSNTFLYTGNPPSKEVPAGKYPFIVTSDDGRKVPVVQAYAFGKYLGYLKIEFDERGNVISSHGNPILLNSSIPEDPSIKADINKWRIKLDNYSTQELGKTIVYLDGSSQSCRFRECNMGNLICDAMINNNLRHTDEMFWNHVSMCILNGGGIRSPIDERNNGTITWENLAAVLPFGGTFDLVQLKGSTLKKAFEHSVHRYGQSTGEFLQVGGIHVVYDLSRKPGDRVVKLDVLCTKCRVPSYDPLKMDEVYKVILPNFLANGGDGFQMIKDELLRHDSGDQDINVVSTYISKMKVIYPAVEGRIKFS
As to the kind of experiment: cell-based or functional assay.

Where a chain is given by its changes, count along the chain named. Bounds are passed on as bounds.

T1 sequence (P25942 21-193): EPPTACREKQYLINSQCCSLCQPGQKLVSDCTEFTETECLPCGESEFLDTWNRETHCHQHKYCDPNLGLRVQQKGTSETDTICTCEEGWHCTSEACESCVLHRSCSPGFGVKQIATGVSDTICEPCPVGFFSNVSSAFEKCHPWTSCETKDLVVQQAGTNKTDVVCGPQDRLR

B1: 3h56-269-IgG1.3f (Fc fusion)
chain: EVQLLESGGGLVQPGGSLRLSCAASGFTFRDYEMWWVRQAPGKGLERVSAINPQGTRTYYADSVKGRFTISRDNSKNTLYLQMNSLRAEDTAVYYCAKLPFRFSDRGQGTLVTVSSASTEPKSCDKTHTCPPCPAPEAEGAPSVFLFPPKPKDTLMISRTPEVTCVVVDVSHEDPEVKFNWYVDGVEVHNAKTKPREEQYNSTYRVVSVLTVLHQDWLNGKEYKCKVSNKALPAPIEKTISKAKGQPREPQVYTLPPSREEMTKNQVSLTCLVKGFYPSDIAVEWESNGQPENNYKTTPPVLDSDGSFFLYSKLTVDKSRWQQGNVFSCSVMHEALHNHYTQKSLSLSPGK
As for B1, in the test with hCD40-Fc, the Kd was less than 1 nM.

B2: 3h56-269-IgG1.1f (Fc fusion)
chain: B1 chain with A234S, P235S
As for B2, in the test with hCD40-Fc, the Kd was less than 1 nM.

B3: CD73.3-IgG1.1 (antibody, V domains shown)
VH: EVQLVESGGGLVQPGRSLRLSCAASGFTFDDYAMHWVRQAPGKGLEWVSGISWKSGSIGYADSVKGRFTISRDNAKNSLYLQMNSLRAEDTVLYYCVKGYYVILTGLDYWGQGTLVTVSS
VL: not shown
On to B3, for which, in test [1], the “% internalization, H2228” value worked out at 47%.
